Source: patent US20260209386A1 (MYTHIC THERAPEUTICS, published 2026)

T1: Human PTK7/CCK4 Protein, His Tag, Acro Biosystems PT7-H52H3 (human, UniProt Q13308 31-704)
T1 construct: bought protein; also called Human PTK7 Protein, His Tag, Acro Biosystems; not shown: His tag
T1 sequence: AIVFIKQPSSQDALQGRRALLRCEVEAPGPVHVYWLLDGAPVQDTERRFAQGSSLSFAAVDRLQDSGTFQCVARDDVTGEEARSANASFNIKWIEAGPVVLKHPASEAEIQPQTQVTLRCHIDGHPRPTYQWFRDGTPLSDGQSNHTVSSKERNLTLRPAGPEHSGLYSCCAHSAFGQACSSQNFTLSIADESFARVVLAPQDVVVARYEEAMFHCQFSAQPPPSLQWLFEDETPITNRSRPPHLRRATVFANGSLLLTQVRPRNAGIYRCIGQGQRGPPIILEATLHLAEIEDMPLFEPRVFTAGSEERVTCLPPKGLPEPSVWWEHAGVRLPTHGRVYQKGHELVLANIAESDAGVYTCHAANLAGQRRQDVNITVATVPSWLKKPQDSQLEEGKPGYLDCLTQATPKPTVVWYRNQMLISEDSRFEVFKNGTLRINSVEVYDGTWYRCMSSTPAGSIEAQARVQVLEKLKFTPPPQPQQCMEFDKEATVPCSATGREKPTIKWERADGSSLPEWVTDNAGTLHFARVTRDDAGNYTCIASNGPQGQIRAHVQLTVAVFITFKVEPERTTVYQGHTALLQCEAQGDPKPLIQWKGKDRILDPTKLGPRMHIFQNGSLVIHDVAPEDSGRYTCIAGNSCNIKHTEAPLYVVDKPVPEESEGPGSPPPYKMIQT


These binders were tested against T1, Human PTK7/CCK4 Protein, His Tag, Acro … (assay: BLI, antibody on anti-human Fc sensor, 50 nM PTK7).

binding result	Binder
binds	MYT11349 (antibody, V domains shown, IgG) VH: EVQLVESGGGLVQPGGSLRLSCTASGIDLSNYAVIWVRQAPGKGLEWVGHIYTYDTTYYANWAKGRFTISRDTSKNTVYLQMNSLRAEDTAVYFCARSFSDISDLIKLWGQGTLVTVSS VL: EIVMTQSPSTLSASVGDRVIITCQASQSLYNNKDLAWYQQKPGKAPKLLIYEASKLASGVPSRFSGSGSGAEFTLTISSLQPDDFATYYCLGEFSCGSGDCLAFGQGTKLTVL
binds	MYT11352 (antibody, V domains shown, IgG) VH: EVQLVESGGGLVQPGGSLRLSCTASGIDLSNYAVIWVRQAPGKGLEWVGIIYHYDTTYYANWAKGRFTISRDTSKNTVYLQMNSLRAEDTAVYFCARSFSDISDLIKLWGQGTLVTVSS VL: EIVMTQSPSTLSASVGDRVIITCQASQSLYNNKDLAWYQQKPGKAPKLLIYEASKLASGVPSRFSGSGSGAEFTLTISSLQPDDFATYYCLGEFSCGSGDCLAFGQGTKLTVL
binds	MYT11354 (antibody, V domains shown, IgG) VH: EVQLVESGGGLVQPGGSLRLSCTASGIDLSNYAVIWVRQAPGKGLEWVGIIYTYHTTYYANWAKGRFTISRDTSKNTVYLQMNSLRAEDTAVYFCARSFSDISDLIKLWGQGTLVTVSS VL: EIVMTQSPSTLSASVGDRVIITCQASQSLYNNKDLAWYQQKPGKAPKLLIYEASKLASGVPSRFSGSGSGAEFTLTISSLQPDDFATYYCLGEFSCGSGDCLAFGQGTKLTVL
binds	MYT11240 (antibody, V domains shown, IgG) VH: EVQLVESGGGLVQPGGSLRLSCTASGIDLSSYVMGWVRQAPGKGLEWVGYIYGGGGTYYATWARGRFTISRDTSKNTVYLQMNSLRAEDTAVYFCARAAADFYFNLWGQGTLVTVSS VL: EIVMTQSPSTLSASVGDRVIITCQASQSISSYLAWYQQKPGKAPKLLIYDISDLASGVPSRFSGSGSGAEFTLTISSLQPDDFATYYCQSHYWISNSGAAFGQGTKLTVL
binds	MYT11248 (antibody, V domains shown, IgG) VH: EVQLVESGGGLVQPGGSLRLSCTASGIDLSSYVMGWVRQAPGKGLEWVGYIYGGGGTYYATWARGRFTISRDTSKNTVYLQMNSLRAEDTAVYFCARAAADFYFNLWGQGTLVTVSS VL: EIVMTQSPSTLSASVGDRVIITCQASQSISSYLAWYQQKPGKAPKLLIYDISDLASGVPSRFSGSGSGAEFTLTISSLQPDDFATYYCQSYYWISNSGHAFGQGTKLTVL
binds	MYT11246 (antibody, V domains shown, IgG) VH: EVQLVESGGGLVQPGGSLRLSCTASGIDLSSYVMGWVRQAPGKGLEWVGYIYGGGGTYYATWARGRFTISRDTSKNTVYLQMNSLRAEDTAVYFCARAAADFYFNLWGQGTLVTVSS VL: EIVMTQSPSTLSASVGDRVIITCQASQSISSYLAWYQQKPGKAPKLLIYDISDLASGVPSRFSGSGSGAEFTLTISSLQPDDFATYYCQSYYWISNHGAAFGQGTKLTVL
binds	MYT11247 (antibody, V domains shown, IgG) VH: EVQLVESGGGLVQPGGSLRLSCTASGIDLSSYVMGWVRQAPGKGLEWVGYIYGGGGTYYATWARGRFTISRDTSKNTVYLQMNSLRAEDTAVYFCARAAADFYFNLWGQGTLVTVSS VL: EIVMTQSPSTLSASVGDRVIITCQASQSISSYLAWYQQKPGKAPKLLIYDISDLASGVPSRFSGSGSGAEFTLTISSLQPDDFATYYCQSYYWISNSHAAFGQGTKLTVL
binds	MYT11245 (antibody, V domains shown, IgG) VH: EVQLVESGGGLVQPGGSLRLSCTASGIDLSSYVMGWVRQAPGKGLEWVGYIYGGGGTYYATWARGRFTISRDTSKNTVYLQMNSLRAEDTAVYFCARAAADFYFNLWGQGTLVTVSS VL: EIVMTQSPSTLSASVGDRVIITCQASQSISSYLAWYQQKPGKAPKLLIYDISDLASGVPSRFSGSGSGAEFTLTISSLQPDDFATYYCQSYYWISHSGAAFGQGTKLTVL
binds	MYT11249 (antibody, V domains shown, IgG) VH: EVQLVESGGGLVQPGGSLRLSCTASGIDLSSYVMGWVRQAPGKGLEWVGYIYGGGGTYYATWARGRFTISRDTSKNTVYLQMNSLRAEDTAVYFCARAAADFYFNLWGQGTLVTVSS VL: EIVMTQSPSTLSASVGDRVIITCQASQSISSYLAWYQQKPGKAPKLLIYDISDLASGVPSRFSGSGSGAEFTLTISSLQPDDFATYYCQSYYWISNSGAHFGQGTKLTVL
binds	MYT11244 (antibody, V domains shown, IgG) VH: EVQLVESGGGLVQPGGSLRLSCTASGIDLSSYVMGWVRQAPGKGLEWVGYIYGGGGTYYATWARGRFTISRDTSKNTVYLQMNSLRAEDTAVYFCARAAADFYFNLWGQGTLVTVSS VL: EIVMTQSPSTLSASVGDRVIITCQASQSISSYLAWYQQKPGKAPKLLIYDISDLASGVPSRFSGSGSGAEFTLTISSLQPDDFATYYCQSYYWIHNSGAAFGQGTKLTVL

The remaining lines, values behind:

Binder	binding result
MYT11258 (antibody, V domains shown, IgG) VH: EVQLVESGGGLVQPGGSLRLSCTASGIDLHRYSMGWVRQAPGKGLEWVGIISYGGSTYYASWAKGRFTISRDTSKNTVYLQMNSLRAEDTAVYFCARVGYPGYSGYGYAFDAFDPWGQGTLVTVSS VL: EIVMTQSPSTLSASVGDRVIITCQSSKSVYNDNWLSWYQQKPGKAPKLLIYGASTLASGVPSRFSGSGSGAEFTLTISSLQPDDFATYYCAGGYSSSSDNGFGQGTKLTVL	binds
MYT11289 (antibody, V domains shown, IgG) VH: EVQLVESGGGLVQPGGSLRLSCTASGIDLSRYSMGWVRQAPGKGLEWVGIISYGGSTYYASWAKGRFTISRDTSKNTVYLQMNSLRAEDTAVYFCARVGYPGYSHYGYAFDAFDPWGQGTLVTVSS VL: EIVMTQSPSTLSASVGDRVIITCQSSKSVYNDNWLSWYQQKPGKAPKLLIYGASTLASGVPSRFSGSGSGAEFTLTISSLQPDDFATYYCAGGYSSSSDNGFGQGTKLTVL	binds
MYT11267 (antibody, V domains shown, IgG) VH: EVQLVESGGGLVQPGGSLRLSCTASGIDLSRYSMGWVRQAPGKGLEWVGIISHGGSTYYASWAKGRFTISRDTSKNTVYLQMNSLRAEDTAVYFCARVGYPGYSGYGYAFDAFDPWGQGTLVTVSS VL: EIVMTQSPSTLSASVGDRVIITCQSSKSVYNDNWLSWYQQKPGKAPKLLIYGASTLASGVPSRFSGSGSGAEFTLTISSLQPDDFATYYCAGGYSSSSDNGFGQGTKLTVL	binds
MYT11279 (antibody, V domains shown, IgG) VH: EVQLVESGGGLVQPGGSLRLSCTASGIDLSRYSMGWVRQAPGKGLEWVGIISYGGSTYYASWAKHRFTISRDTSKNTVYLQMNSLRAEDTAVYFCARVGYPGYSGYGYAFDAFDPWGQGTLVTVSS VL: EIVMTQSPSTLSASVGDRVIITCQSSKSVYNDNWLSWYQQKPGKAPKLLIYGASTLASGVPSRFSGSGSGAEFTLTISSLQPDDFATYYCAGGYSSSSDNGFGQGTKLTVL	binds
MYT11272 (antibody, V domains shown, IgG) VH: EVQLVESGGGLVQPGGSLRLSCTASGIDLSRYSMGWVRQAPGKGLEWVGIISYGGSTHYASWAKGRFTISRDTSKNTVYLQMNSLRAEDTAVYFCARVGYPGYSGYGYAFDAFDPWGQGTLVTVSS VL: EIVMTQSPSTLSASVGDRVIITCQSSKSVYNDNWLSWYQQKPGKAPKLLIYGASTLASGVPSRFSGSGSGAEFTLTISSLQPDDFATYYCAGGYSSSSDNGFGQGTKLTVL	binds
MYT11309 (antibody, V domains shown, IgG) VH: EVQLVESGGGLVQPGGSLRLSCTASGIDLSRYSMGWVRQAPGKGLEWVGIISYGGSTYYASWAKGRFTISRDTSKNTVYLQMNSLRAEDTAVYFCARVGYPGYSGYGYAFDAFDPWGQGTLVTVSS VL: EIVMTQSPSTLSASVGDRVIITCQSSKSHYNDNWLSWYQQKPGKAPKLLIYGASTLASGVPSRFSGSGSGAEFTLTISSLQPDDFATYYCAGGYSSSSDNGFGQGTKLTVL	binds
MYT11322 (antibody, V domains shown, IgG) VH: EVQLVESGGGLVQPGGSLRLSCTASGIDLSRYSMGWVRQAPGKGLEWVGIISYGGSTYYASWAKGRFTISRDTSKNTVYLQMNSLRAEDTAVYFCARVGYPGYSGYGYAFDAFDPWGQGTLVTVSS VL: EIVMTQSPSTLSASVGDRVIITCQSSKSVYNDNWLSWYQQKPGKAPKLLIYGASTLHSGVPSRFSGSGSGAEFTLTISSLQPDDFATYYCAGGYSSSSDNGFGQGTKLTVL	binds
MYT11263 (antibody, V domains shown, IgG) VH: EVQLVESGGGLVQPGGSLRLSCTASGIDLSRYSMHWVRQAPGKGLEWVGIISYGGSTYYASWAKGRFTISRDTSKNTVYLQMNSLRAEDTAVYFCARVGYPGYSGYGYAFDAFDPWGQGTLVTVSS VL: EIVMTQSPSTLSASVGDRVIITCQSSKSVYNDNWLSWYQQKPGKAPKLLIYGASTLASGVPSRFSGSGSGAEFTLTISSLQPDDFATYYCAGGYSSSSDNGFGQGTKLTVL	binds
MYT11285 (antibody, V domains shown, IgG) VH: EVQLVESGGGLVQPGGSLRLSCTASGIDLSRYSMGWVRQAPGKGLEWVGIISYGGSTYYASWAKGRFTISRDTSKNTVYLQMNSLRAEDTAVYFCARVGYHGYSGYGYAFDAFDPWGQGTLVTVSS VL: EIVMTQSPSTLSASVGDRVIITCQSSKSVYNDNWLSWYQQKPGKAPKLLIYGASTLASGVPSRFSGSGSGAEFTLTISSLQPDDFATYYCAGGYSSSSDNGFGQGTKLTVL	binds
